Patent publication US7629323B2, “Manipulation of neuronal ion channels” (Northwestern University, priority 2003, dated 2009)

How the values were obtained:
Kv3.4 mRNA = assay: siRNA suppression of Kv3.4 mRNA in HEK293/Kv3.4 cells, real-time quantitative PCR; assay type: cell-based, rat; details: normalized to transfection efficiency (60%)
Description: For example, mammalian cells expressing the potassium channel were tested with siRNA vectors. HEK 293/Kv3.4a cells were generated by stable transfection with a linearized form of pcDNA3/Kv3.4a (Baranauskas et al., Nat Neurosci., 6:258 (2003)), and geneticin selection of a single clone. Kv3.4 expression was confirmed by quantitative PCR and Western blotting. Four target sequences were chosen (#1, #2, #3, and #4, described in more detail below). HEK293/Kv3.4 cells were transfected with these siRNA. To monitor transfection efficiency fluorescein labeled luciferase GL2-F1 siRNA (Dharmacon) was used. In transfected cells, labeled duplexes are detectable as discrete punctate cytoplasmic dots (Holen et al., Nucleic Acids Res., 30:1757 (2002)). Transfection efficiency was 60%, probably, due to high passage number.
Real-time quantitative PCR employing SYBR green fluorescence detection was used to measure Kv3.4 cDNA abundance. As a control for the non-specific effects of siRNA duplexes, siRNA targeting Kv3.1 was used. The differences in the amount of extracted RNA were taken into account by normalization to β-actin. Variability in the amplification during PCR reactions was estimated by running five PCR reactions for the same cDNA sample. […]

[1] = molecular target: T1, Kv3.4a/Kv3.1b heteromeric channels (Rattus norvegicus, UniProt P25122+Q63734); assay type: cell-based
T1 construct: expressed in transfected cells; host or cells: HEK293
T1 sequence (Q63734 1-625): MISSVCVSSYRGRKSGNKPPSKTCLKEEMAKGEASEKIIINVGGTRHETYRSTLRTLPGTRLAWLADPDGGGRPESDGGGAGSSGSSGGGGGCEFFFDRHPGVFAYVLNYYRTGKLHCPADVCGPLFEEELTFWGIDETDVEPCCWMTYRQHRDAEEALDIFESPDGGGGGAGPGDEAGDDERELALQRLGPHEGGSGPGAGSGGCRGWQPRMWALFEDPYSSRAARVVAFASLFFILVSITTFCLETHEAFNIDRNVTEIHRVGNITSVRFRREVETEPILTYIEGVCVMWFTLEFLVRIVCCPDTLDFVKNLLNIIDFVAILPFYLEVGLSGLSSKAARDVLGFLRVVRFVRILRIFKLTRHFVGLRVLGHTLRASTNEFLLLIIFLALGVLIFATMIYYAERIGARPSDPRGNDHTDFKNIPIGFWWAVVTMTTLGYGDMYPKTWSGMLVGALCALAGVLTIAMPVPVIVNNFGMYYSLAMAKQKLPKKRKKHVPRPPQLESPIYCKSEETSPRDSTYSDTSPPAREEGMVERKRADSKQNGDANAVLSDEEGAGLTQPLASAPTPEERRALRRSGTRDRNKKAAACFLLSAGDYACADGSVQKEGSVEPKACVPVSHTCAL
T1 sequence (P25122 1-585): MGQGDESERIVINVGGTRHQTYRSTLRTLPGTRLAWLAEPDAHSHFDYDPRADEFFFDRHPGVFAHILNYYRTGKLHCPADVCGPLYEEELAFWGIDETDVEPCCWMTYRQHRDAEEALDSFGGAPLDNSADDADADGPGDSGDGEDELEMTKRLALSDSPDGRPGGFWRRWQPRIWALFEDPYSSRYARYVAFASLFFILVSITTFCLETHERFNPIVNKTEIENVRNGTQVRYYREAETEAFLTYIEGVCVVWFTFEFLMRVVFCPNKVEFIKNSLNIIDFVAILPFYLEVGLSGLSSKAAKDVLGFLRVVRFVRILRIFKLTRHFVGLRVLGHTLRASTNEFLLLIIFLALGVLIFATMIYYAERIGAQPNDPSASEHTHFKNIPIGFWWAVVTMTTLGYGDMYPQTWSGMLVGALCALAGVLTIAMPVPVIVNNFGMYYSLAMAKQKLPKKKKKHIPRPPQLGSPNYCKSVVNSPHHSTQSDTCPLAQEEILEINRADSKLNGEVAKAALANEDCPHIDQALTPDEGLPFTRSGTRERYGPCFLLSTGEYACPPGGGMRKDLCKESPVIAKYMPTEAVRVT
Excerpt: Electrophysiology. Whole-cell recordings used standard techniques^27,28. The internal solution consisted of (in mM): 30-90 K2SO4, 0-60 N-methyl-D-glucamine, 2 MgCl2, 40 HEPES, 5 EGTA, 12 phosphocreatine, 2 Na2ATP, 0.2 Na3GTP, and 0.1 leupeptin, pH 7.2 with H2SO4 (osmolarity 260-270 mOsm/l). The external solution consisted of (in mM): 140 Na-isethionate, 2 KCl, 4 MgCl2, 10 HEPES, 12 glucose and 0.001 TTX, pH 7.35 with NaOH (osmolarity 295-305 mOsm/l). The internal solution for current clamp recordings consisted of (in mM) 110 potassium methylsulphate, 2 MgCl2, 40 HEPES, 5 EGTA, 12 phosphocreatine, 2 Na2ATP, 0.2 Na3GTP, and 0.1 leupeptin, pH 7.2 with H2SO4 (osmolarity 260-270 mOsm/l). In the case of current clamp recordings, TTX was omitted from external solution. For the recordings in the presence of Ca^+2 ions EGTA was omitted from internal solution and 4 mM of MgCl2 was substituted by 2 mM of CaCl2 and 2 mM of MgCl2. […] Recordings were obtained with Axon Instruments 200 patch-clamp amplifier and controlled and monitored with a PC running pClamp software (version 7.0) (Axon Instruments Inc., Union City, Calif.). […] After seal rupture, series resistance (2-10 MΩ) was compensated (75-90%) and periodically monitored. […]
Single cell RT-PCR (scRT-PCR). […] In the case of co-transfection with Kv3.4a and Kv3.1b cDNA, single cell RT-PCR was used to confirm the presence of both mRNAs in the recorded cell. […]

[2] = molecular target: Kv3.4 protein (native, rat brain membranes / fast-spiking neurons) (rat) (UniProt Q63734); assay: cell-based or functional assay
Kv3.1b (rat) = Kv3.1b (rat) (UniProt P25122); assay: cell-based or functional assay

Question: How did the “estimated suppression of the levels of Kv3.4 mRNA in the transfected cells” value (Kv3.4 mRNA) turn out when “duplex #4: 21-nt double-stranded RNA targeting rat Kv3.4 site D, GGCAGTGTTGAGCCGAAAC (SEQ ID NO:4), position 1825-1843 (second strand not cited, further chemistry not given here; listed as Rattus rattus)” was run?
Answer: 50%

Question: CC[N+](CC)(CC)CC [TEA, tetraethylammonium] was tested. Which “block of K+ currents in Kv3.4a/Kv3.1b co-transfected HEK293 cells” value [1] did it give?
Answer: blocked

Question: For “BDS-I (from UniProt P11494 1-43) (peptide)”, which duration of spikes in FS neurons [2] is on record?
Answer: 53%

B1: Kv3.4a (protein, rat, UniProt Q63734 1-625, looked up)
chain: T1 sequence (Q63734 1-625)
Question: B1 was tested. Which fast inactivation time constant of K+ currents in co-transfected HEK293 cells (Kv3.1b (rat)) did it give?
Answer: 38 ms

Question: And the mean burst duration (long bursts), single channel recording of co-transfected HEK293 cells (Kv3.1b (rat))?
Answer: 250 ms

Question: And the mean burst duration (short bursts), single channel recording of co-transfected HEK293 cells (Kv3.1b (rat))?
Answer: 16.2 ms
